Square brackets hold non-standard residues; d marks the D form. Ends that are not written are not given here. Aib = CC(C)(N)C(=O)O
Assays:
[1] = target: T1, full-length IAPP polypeptide (Homo sapiens, UniProt P10997); assay: ThT fluorescence assay of IAPP fibril formation with inhibitory peptides (Tris buffer); type: biochemical; details: for inhibition of IAPP aggregation (ThT endpoint): 4 μM IAPP, 40 μM inhibitory peptide, 142 hours of incubation
T1 construct: purchased CalBiochem (La Jolla Calif., USA)
T1 sequence (P10997 34-70 limits assumed): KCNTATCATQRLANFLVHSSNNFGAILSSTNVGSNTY
Procedure: The ability of amyloidogenic peptides of IAPP, identified according to the teachings of the present invention to inhibit amyloid formation by the full-length polypeptide was tested by the addition of beta-breaker proline residues to the recognition sequence as set forth in the peptide sequence NFLVHPP (SEQ ID NO: 45). The degree of amyloid fibrils formation with and without the inhibitor was assessed using Thioflavin T (ThT) as molecular indicator. The degree of fluorescence of the ThT dye is directly correlated with the amount of amyloid fibrils in the solution [LeVine H 3rd. (1993) Protein Sci. 2:404-410. IAPP solutions ([…] hIAPPin 10 mM Tris buffer pH 7.2), were incubated in the presence or absence of 40[…] of the modified peptide (i.e., NFLVHPP) at room temperature. Fibril formation was determined by a ten fold dilution of the solutions into a solution that contained 3[…] thioflavin T (ThT) in 50 mM sodium phosphate pH 6.0 and determination of fluorescence at 480 nm with excitation at 450 nm using a LS50B spectroflurimeter (Perkin Elmar, Wellesley, Mass.). As a control 10 mM Tris buffer pH 7.2 were diluted into the ThT solution and fluorescence was determined as described.
The degree of amyloid fibril formation with and without the Aib inhibitor was assessed using thioflavin T (ThT) as molecular indicator. The degree of fluorescence of the ThT dye is directly correlated with the amount of amyloid fibrils in the solution [LeVine H 3rd. (1993) Protein Sci. 2:404-410].
[…]IAPP solutions (4 μM peptide in 10 mM Tris buffer pH 7.2), were incubated with or without 40 μM of the various peptide solutions at room temperature. Fibril formation was assessed by a ten fold diluation of the solutions into a solution which contained 3 μM thioflavin T (ThT) in 50 mM sodium phosphate pH 6.0 and determination of fluorescence at 480 nm with excitation at 450 nm using a Perkin Elmar LS50B spectroflurimeter. As a control a 10 mM Tris buffer pH 7.2 was diluted into the ThT solution and fluorescence was determined as described. […]

hIAPP1-37 = target: T2, hIAPP1-37 (Homo sapiens, UniProt P10997); assay: Thioflavin T fluorescence assay of hIAPP fibrillization (sodium acetate buffer); type: biochemical; details: 4 μM hIAPP1-37, 40 μM inhibitor, 10 mM sodium acetate pH 6.5
T2 construct: purchased CalBiochem (La Jolla Calif., USA)
T2 sequence (P10997 34-70 limits assumed): T1 sequence (P10997 34-70 limits assumed)
Procedure: Thioflavin T fluorescence assay—hIAPP fibrillization was monitored by Thioflavin T dye binding assay. hIAPP1-37 stock solution was diluted to a final concentration of 4 μM in 10 mM sodium acetate buffer (pH 6.5) with or without inhibitors (40 μM), and a final concentration of HFIP of 1% (vol). Immediately after dilution, sample was centrifuged for 20 minutes in 20,000×g at 4° C. and the supernatant fraction was used for fluorescence measurements. In every measurement ThT was added to a 1 ml sample at a final concentration of 3 μM and measurements were effected by using Perkin-Elmer (excitation 450 nm, 2.5 nm slit; emission 480 nm 10 nm slit). Background was subtracted from all samples.

Row | Substance | inhibition of IAPP aggregation (ThT endpoint) [1] | inhibition of IAPP fibrillization (ThT fluorescence at plateau) (hIAPP1-37) | ThT fluorescence of IAPP in the presence of the inhibitory peptide ([1]; hIAPP in 10 mM Tris pH 7.2 with or without modified peptide, room temperature)
1 | Aib-Phe-Phe ([Aib]-Phe-Phe) [EG12] | best inhibitor | – | –
2 | D-Tyr-Aib [EG16] | significant inhibitory effect on IAPP aggregation | effective inhibition | –
3 | NFLVHPP | – | – | significant increase in fluorescence

Source: patent publication US8012929B2, “Peptides directed for diagnosis and treatment of amyloid-associated diseases” (Tel Aviv University Future Technology Development L.P., priority 2002, dated 2011)
